Target: the molecule itself
Experiment: not stated; HEK293T cells with forced expression or knockdown of TOX and TOX2; bands told by apparent size (Supplementary Fig. 3B)

B1: TOX-Flag (full-length TOX) (natural protein, UniProt O94900 1-526, looked up)
chain: MDVRFYPPPAQPAAAPDAPCLGPSPCLDPYYCNKFDGENMYMSMTEPSQDYVPASQSYPGPSLESEDFNIPPITPPSLPDHSLVHLNEVESGYHSLCHPMNHNGLLPFHPQNMDLPEITVSNMLGQDGTLLSNSISVMPDIRNPEGTQYSSHPQMAAMRPRGQPADIRQQPGMMPHGQLTTINQSQLSAQLGLNMGGSNVPHNSPSPPGSKSATPSPSSSVHEDEGDDTSKINGGEKRPASDMGKKPKTPKKKKKKDPNEPQKPVSAYALFFRDTQAAIKGQNPNATFGEVSKIVASMWDGLGEEQKQVYKKKTEAAKKEYLKQLAAYRASLVSKSYSEPVDVKTSQPPQLINSKPSVFHGPSQAHSALYLSSHYHQQPGMNPHLTAMHPSLPRNIAPKPNNQMPVTVSIANMAVSPPPPLQISPPLHQHLNMQQHQPLTMQQPLGNQLPMQVQSALHSPTMQQGFTLQPDYQTIINPTSTAAQVVTQAMEYVRSGCRNPPPQPVDWNNDYCSSGGMQRDKALYLT
notes: TOX, full length (526 residues by the printed limits of TOX(C) 257-526), in pCDH vector; Both are written as this one molecule; source: HEK293T, transfected, in lysate; not shown: Flag, C-terminal, kept
- stoichiometry N: 2

— PMC11519604, “TOX2 nuclear-cytosol translocation is linked to leukemogenesis of acute T-cell leukemia by repressing TIM3 transcription” (Cell Death and Differentiation, 2024)
